Reference: paper PMC8539644

Molecular target: GerD–mScarlet-I (Bacillus cereus ATCC 14579)
Experiment: FRET or BRET; sensitized emission (filter) FRET by wide-field fluorescence microscopy in single dormant B. cereus spores; donor SGFP2, acceptor mScarlet-I; normalized FRET (NFRET) corrected for bleed-through and cross-excitation

Row | Substance | FRET efficiency
1 | GerR(A-C-B)–SGFP2 (complex) | 6%
2 | GerRB–SGFP2 (natural protein) | 6%
